The numbers were not newly measured in patent US8232251B2, “Compounds for delivery of therapeutic and imaging moieties to nerve cells” (Manzanita Pharmaceuticals, Inc., priority 1998, dated 2012), which cites them from elsewhere.

This data set addresses T1, p75 (Homo sapiens, UniProt P08138).
T1 sequence (P08138 29-427): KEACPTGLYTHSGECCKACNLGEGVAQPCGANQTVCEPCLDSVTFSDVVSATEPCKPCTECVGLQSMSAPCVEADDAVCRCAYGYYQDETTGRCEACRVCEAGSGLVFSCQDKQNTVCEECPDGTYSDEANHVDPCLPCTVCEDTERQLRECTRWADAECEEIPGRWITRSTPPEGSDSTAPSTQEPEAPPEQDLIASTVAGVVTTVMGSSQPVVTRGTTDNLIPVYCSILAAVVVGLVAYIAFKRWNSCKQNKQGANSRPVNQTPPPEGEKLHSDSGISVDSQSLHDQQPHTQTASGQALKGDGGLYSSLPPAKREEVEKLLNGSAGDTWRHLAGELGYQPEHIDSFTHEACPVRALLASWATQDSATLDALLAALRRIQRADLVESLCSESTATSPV
The following applies: lower affinity binding to more abundant p75.

Regarding “NGF: nerve growth factor, first identified member of the neurotrophin family; used as binding agent B”, the Kd was 1 nM.
